# Experimental data as given in IntAct's records for PubMed 16865698.
# B1: Mothers against decapentaplegic homolog 4 (Homo sapiens), Q13485 (parent)
# chain: MDNMSITNTPTSNDACLSIVHSLMCHRQGGESETFAKRAIESLVKKLKEKKDELDSLITAITTNGAHPSKCVTIQRTLDGRLQVAGRKGFPHVIYARLWRWPDLHKNELKHVKYCQYAFDLKCDSVCVNPYHYERVVSPGIDLSGLTLQSNAPSSMMVKDEYVHDFEGQPSLSTEGHSIQTIQHPPSNRASTETYSTPALLAPSESNATSTANFPNIPVASTSQPASILGGSHSEGLLQIASGPQPGQQQNGFTGQPATYHHNSTTTWTGSRTAPYTPNLPHHQNGHLQHHPPMPPHPGHYWPVHNELAFQPPISNHPAPEYWCSIAYFEMDVQVGETFKVPSSCPIVTVDGYVDPSGGDRFCLGQLSNVHRTEAIERARLHIGKGVQLECKGEGDVWVRCLSDHAVFVQSYYLDREAGRAPGDAVHKIYPSAYIKVFDLRQCHRQMQQQAATAQAAAAAQAAAVAGNIPGPGSVGGIAPAISLSAAAGIGVDDLRRLCILRMSFVKGWGPDYPRQSIKETPCWIEIHLHRALQLLDEVLHTMPIADPQPLD
# Variants of: B1
# Settings: with fbw1a_human BTRC
row,Variant,effect of a mutation on the interaction
1,P102L,with no effect

# Variants of: B1
# Settings: with skp2_human SKP2, Q13309
# Chain of skp2_human SKP2, Q13309 (Q13309 whole entry): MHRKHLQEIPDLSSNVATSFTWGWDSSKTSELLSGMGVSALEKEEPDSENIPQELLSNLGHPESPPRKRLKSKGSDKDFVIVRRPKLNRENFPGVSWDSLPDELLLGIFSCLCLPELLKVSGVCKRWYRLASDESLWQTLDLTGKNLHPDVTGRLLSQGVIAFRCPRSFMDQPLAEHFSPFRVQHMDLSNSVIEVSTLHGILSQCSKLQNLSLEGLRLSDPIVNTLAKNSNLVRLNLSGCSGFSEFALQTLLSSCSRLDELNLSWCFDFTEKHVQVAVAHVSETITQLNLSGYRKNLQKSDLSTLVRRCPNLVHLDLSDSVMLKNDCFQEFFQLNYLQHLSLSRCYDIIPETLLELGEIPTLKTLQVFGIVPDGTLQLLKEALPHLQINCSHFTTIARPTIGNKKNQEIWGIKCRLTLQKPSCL
row,Variant,effect of a mutation on the interaction
1,P102L,disrupting interaction strength
